How the values were obtained:
[1] = target: human progesterone receptor B isoform (hPRB) (human) (UniProt P06401); assay: cell-based or functional assay
[2] = target: T1, GR (Homo sapiens, UniProt P04150); assay: CAT reporter assay GR/PRE2-TATA-CAT in HeLa cells; type: cell-based; details: 3 μg SRC-1, dexamethasone 2×10^−8 M
T1 construct: expressed in transfected cells; host or cells: HeLa
T1 sequence (P04150 1-777): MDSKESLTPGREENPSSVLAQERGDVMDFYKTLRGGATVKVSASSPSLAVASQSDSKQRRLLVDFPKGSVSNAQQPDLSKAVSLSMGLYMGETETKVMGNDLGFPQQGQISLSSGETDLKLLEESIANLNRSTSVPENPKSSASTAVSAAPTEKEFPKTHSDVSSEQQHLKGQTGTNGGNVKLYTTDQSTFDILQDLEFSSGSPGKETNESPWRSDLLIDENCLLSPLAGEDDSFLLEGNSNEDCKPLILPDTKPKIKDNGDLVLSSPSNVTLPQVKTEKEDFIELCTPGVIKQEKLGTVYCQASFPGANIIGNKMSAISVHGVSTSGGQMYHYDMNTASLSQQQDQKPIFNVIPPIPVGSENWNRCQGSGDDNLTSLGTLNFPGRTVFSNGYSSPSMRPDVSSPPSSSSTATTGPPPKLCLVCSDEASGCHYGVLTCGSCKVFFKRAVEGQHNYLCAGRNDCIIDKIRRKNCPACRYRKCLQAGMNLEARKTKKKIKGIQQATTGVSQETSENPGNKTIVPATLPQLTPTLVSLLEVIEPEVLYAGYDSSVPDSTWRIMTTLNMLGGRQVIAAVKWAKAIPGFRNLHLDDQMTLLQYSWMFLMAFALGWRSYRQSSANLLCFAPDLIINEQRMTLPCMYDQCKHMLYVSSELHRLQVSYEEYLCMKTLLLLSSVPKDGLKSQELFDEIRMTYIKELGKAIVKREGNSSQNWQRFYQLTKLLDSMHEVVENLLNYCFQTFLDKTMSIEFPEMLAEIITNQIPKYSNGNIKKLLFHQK
Experimental: (§1) Biol. 13, 6501-6508), Sp1 and Sp1-tk-CAT (Courey, A. J. and Tjian, R. (1988), Cell 55, 887-898), CREB and CRE-tk-CAT (Chrivia, J. C. et al., (1993), Nature 365, 855) and GAL4VP16 and 17mer-tk-CAT (Baniahmad, A. et al., (1992), EMBO J. 11, 1015-1023) have been previously described and the above references are incorporated herein by reference in their entirety, including any drawings.
(§2) Lipofectin (GibcoBRL) was selected for transfection of Hela cells.
(§3) HeLa cells were cotransfected with 0.5 μg of cDNAs encoding various steroid receptors indicated and 5 μg of their cognates HREs containing reporters, including PR/PRE2-TATA-CAT, ER/ERE2-TATA-CAT, GR/PRE2-TATA-CAT, TR-/DR4-tk-CAT and RXR/DR1-tk-CAT, along with 3 μg of SRC-1 or empty expression vector. Cells were then treated with their corresponding ligands (PR:R5020, ER:estradiol, GR:dexamethasone, TR:Triac, RXR:9-cis retinoic acid) at a concentration of 2×10^−8M. The CAT activity of the reporter was determined using 14 μg of protein extract.

[3] = target: T2, RXR (Mus musculus, UniProt P28704); assay: CAT reporter assay RXR/DR1-tk-CAT in HeLa cells; type: cell-based; details: 3 μg SRC-1, 9-cis retinoic acid 2×10^−8 M
T2 construct: expressed in transfected cells; host or cells: HeLa
T2 sequence (P28704 1-520): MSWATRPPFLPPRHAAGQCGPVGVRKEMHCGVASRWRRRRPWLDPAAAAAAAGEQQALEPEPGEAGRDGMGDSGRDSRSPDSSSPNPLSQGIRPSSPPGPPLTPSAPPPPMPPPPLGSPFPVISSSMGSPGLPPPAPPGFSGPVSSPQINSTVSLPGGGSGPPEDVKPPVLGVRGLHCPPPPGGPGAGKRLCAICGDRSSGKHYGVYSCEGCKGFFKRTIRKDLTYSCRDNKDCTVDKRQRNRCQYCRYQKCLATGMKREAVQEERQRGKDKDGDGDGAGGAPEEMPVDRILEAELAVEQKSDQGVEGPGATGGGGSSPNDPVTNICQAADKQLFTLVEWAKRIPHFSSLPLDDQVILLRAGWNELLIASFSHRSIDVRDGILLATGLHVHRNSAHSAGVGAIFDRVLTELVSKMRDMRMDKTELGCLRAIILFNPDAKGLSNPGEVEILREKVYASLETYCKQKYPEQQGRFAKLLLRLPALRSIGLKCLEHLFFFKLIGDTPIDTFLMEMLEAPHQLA
Experimental: as §1, §2, §3

[4] = tested on: CREB; assay: CAT reporter assay CREB/CRE-tk-CAT in HeLa cells, with and without forskolin; type: cell-based; details: without and with 1 μM forskolin
Experimental: as §2
The CAT activity of the reporter was determined.

[5] = target: T3, TR (Homo sapiens, UniProt P10828); assay: CAT reporter assay TR/DR4-tk-CAT in HeLa cells; type: cell-based; set-up: expressed in transfected cells; details: 3 μg SRC-1, Triac 2×10^−8 M
T3 sequence (P10828 1-461): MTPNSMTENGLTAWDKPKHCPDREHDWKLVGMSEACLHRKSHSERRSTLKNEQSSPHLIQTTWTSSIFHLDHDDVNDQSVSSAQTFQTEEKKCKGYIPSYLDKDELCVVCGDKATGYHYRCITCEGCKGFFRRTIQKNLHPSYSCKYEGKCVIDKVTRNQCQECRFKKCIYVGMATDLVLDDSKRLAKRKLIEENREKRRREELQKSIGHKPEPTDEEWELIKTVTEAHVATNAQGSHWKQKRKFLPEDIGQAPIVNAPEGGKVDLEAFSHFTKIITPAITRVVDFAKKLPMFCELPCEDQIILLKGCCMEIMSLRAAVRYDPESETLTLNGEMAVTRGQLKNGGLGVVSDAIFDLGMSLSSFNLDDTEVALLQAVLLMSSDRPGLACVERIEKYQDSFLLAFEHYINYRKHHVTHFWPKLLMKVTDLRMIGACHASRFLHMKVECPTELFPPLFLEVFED
Experimental: as §1, §2, §3

B1: steroid receptor coactivator-one (SRC-1), full-length (protein)
chain: MSIPRVNPSVNPSISPAHGVARSSTLPPSNSNMVSTRINRQQSSDLHSSSHSNSSNSQGSFGCSPGSQIVANVALNKGQASSQSSKPSLNLNNPPMEGTGISLAQFMSPRRQVTSGLATRPRMPNNSFPPNISTLSSPVGMTSSACNNNNRSYSNIPVTSLQGMNEGPNNSVGFSASSPVLRQMSSQNSPSRLNIQPAKAESKDNKEIASTLNEMIQSDNSSSDGKPLDSGLLHNNDRLSDGDSKYSQTSHKLVQLLTTTAEQQLRHADIDTSCKDVLSCTGTSNSASANSSGGSCPSSHSSLTARHKILHRLLQEGSPSDITTLSVEPDKKDSASTSVSVTGQVQGNSSIKLELDASKKKESKDHQLLRYLLDKDEKDLRSTPNLSLDDVKVKVEKKEQMDPCNTNPTPMTKATPEEIKLEAQSQFTADLDQFDQLLPTLEKAAQLPGLCETDRMDGAVTSVTIKSEILPASLQSATARPTSRLNRLPELELEAIDNQFGQPGTGDQIPWTNNTVTAINQSKSEDQCISSQLDELLCPPTTVEGRNDEKALLEQLVSFLSGKDETELAELDRALGIDKLVQGGGLDVLSERFPPQQATPPLIMEERPNLYSQPYSSPFPTANLPSPFQGMVRQKPSLGTMPVQVTPPRGAFSPGMGMQPRQTLNRPPAAPNQLRLQLQQRLQGQQQLIHQNRQAILNQFAATAPVGINMRSGMQQQITPQPPLNAQMLAQRQRELYSQQHRQRQLIQQQRAMLMRQQSFGNNLPPSSGLPVQTGNPRLPQGAPQQFPYPPNYGTNPGTPPASTSPFSQLAANPEASLANRNSMVSRGMTGNIGGQFGTGINPQMQQNVFQYPGAGMVPQGEANFAPSLSPGSSMVPMPIPPPQSSLLQQTPPASGYQSPDMKAWQQGAIGNNNVFSQAVQNQPTPAQPGVYNNMSITVSMAGGNTNVQNMNPMMAQMQMSSLQMPGMNTVCPEQINDPALRHTGLYCNQLSSTDLLKTEADGTQQVQQVQVFADVQCTVNLVGGDPYLNQPGPLGTQKPTSGPQTPQAQQKSLLQQLLTE
fold induction of PRE2-TATA-CAT reporter activity over the hormone-induced receptor activity (HeLa cells, R5020) [1]: 14 fold | reversal of hER squelching of hPR-mediated CAT reporter activity (HeLa cells) [1]: 16 fold | stimulation of PR transactivation at the highest concentration of SRC-1 (2 µg), CAT reporter [1]: 5 fold | effect on GR transcriptional activity [2]: enhance | effect on RXR transcriptional activity [3]: enhance | effect on basal and forskolin-stimulated transcriptional activities of CREB [4]: did not affect | effect on TR transcriptional activity [5]: enhance

From patent US6380373B1, “Steroid receptor coactivator compositions and methods of use” (Baylor College of Medicine, priority 1995, dated 2002)
